Measurements as given in US20130224191A1, “NOTUM PROTEIN MODULATORS AND METHODS OF USE” (priority 2010, published 2013).
Read-outs that look alike come from different tables or passages of the source.

Columns and labels:
[1] = molecular target: Wnt3A (conditioned medium from L/Wnt3A cells, ATCC CRL-2647) (UniProt P27467); experiment: cell-based or functional assay; set-up: unit not given beside the values
[2] = tested on: luciferase transcription in the 293.TCF cells; experiment: Luciferase reporter activation in 293.TCF cells; format: cell-based, human; conditions: 40 mM
Source text: To generate a stable population of cells that contain a reporter for the activation of canonical Wnt signaling, HEK 293T cells were transduced with a lentiviral vector, pGreenFirel-TCF (System Biosciences) which encodes a bifunctional GFP and luciferase reporter cassette under the control of a minimal CMV reporter linked to four tandem repeats of the transcriptional response elements for TCF. Transduced cells populations, termed 293.TCF cells, were subsequently used in a Wnt3A canonical signaling assay as follows: 2.5×10^4 293.TCF cells were plated per well of a 96-well tissue culture plate in 50 μL of serum-free DME medium. After 24 hours of serum starvation, 25 μL of various dilutions of conditioned medium (CM) from L/Wnt3A cells (ATCC CRL-2647; Willert, 2003) or undiluted CM from parental L-cells (ATCC CRL-2648) along with 25 μL of DMEM+0.2% FBS were added to each well. […] The contents of each well were then mixed thoroughly to lyse the cells, 100 μL of lysate transferred to black 96-well plates, and the luminescence in each well read after 5 mins using a Wallac Victor3 Multilabel Counter (Perkin-Elmer Corp). […] More particularly, as the Wnt3A+ CM media is diluted from 25% down to approximately 3%, activation of the Wnt pathway is reduced with a corresponding decrease in luminescence.

[3] = Esterase activity of Notum proteins on chromogenic substrates; format: biochemical; conditions: 1 hour at 37° C.
Procedure: Briefly, PNPA or PNPB were dissolved/diluted in isopropanol to final concentrations of 10 mM. These substrate solutions were diluted 1:10 into assay buffer (0.1% gum arabic, 2.3 mg/mL sodium dexoycholate, 1×PBS) and incubated with defined amounts of hNotum enzyme, and the enzymatic release of the chromophore p-nitrophenol monitored by absorbance measurements at 405 nm.

[4] = tested on: Wnt3A-mediated induction of luciferase in the 293.TCF cells; experiment: Wnt3A canonical signaling assay, bioactivity of Notum constructs; format: cell-based, human
Source text: To generate a stable population of cells that contain a reporter for the activation of canonical Wnt signaling, HEK 293T cells were transduced with a lentiviral vector, pGreenFirel-TCF (System Biosciences) which encodes a bifunctional GFP and luciferase reporter cassette under the control of a minimal CMV reporter linked to four tandem repeats of the transcriptional response elements for TCF. Transduced cells populations, termed 293.TCF cells, were subsequently used in a Wnt3A canonical signaling assay as follows: 2.5×10^4 293.TCF cells were plated per well of a 96-well tissue culture plate in 50 μL of serum-free DME medium. After 24 hours of serum starvation, 25 μL of various dilutions of conditioned medium (CM) from L/Wnt3A cells (ATCC CRL-2647; Willert, 2003) or undiluted CM from parental L-cells (ATCC CRL-2648) along with 25 μL of DMEM+0.2% FBS were added to each well. Eighteen hours after addition of CM, 100 μL of One-Glo solution (ProMega Corp.) was added to each well. The contents of each well were then mixed thoroughly to lyse the cells, 100 μL of lysate transferred to black 96-well plates, and the luminescence in each well read after 5 mins using a Wallac Victor3 Multilabel Counter (Perkin-Elmer Corp). […] More particularly, as the Wnt3A+ CM media is diluted from 25% down to approximately 3%, activation of the Wnt pathway is reduced with a corresponding decrease in luminescence.
Once the luciferase reporter system was established, assays for determining the bioactivity of various Notum modulators were performed as follows. 2.5×10^4 293.TCF cells were plated per well of a 96-well tissue culture plate in 50 μL of serum-free medium. After 23 hours of serum starvation, 25 μL of DMEM+0.2% FBS containing various Notum modulators at various concentrations (e.g., hNotum-His, hNotum-hFc, hNotum-S232A-His, murine Notum-His, murine Notum-hFc, macaque Notum-hFc, control protein-His or control protein-hFc obtained as per Examples 7, 8 and 13 above), were added to the cells. After 1 hour, 25 μL of Wnt3A or control L-cell CM were added to each well. Eighteen hours after addition of CM, 100 μL of One-Glo solution (ProMega Corp.) was added to each well, the contents of each well mixed thoroughly to lyse the cells, 100 μL of lysate transferred to black 96-well plates, and the luminescence read after 5 minutes.

[5] = tested on: mouse lineage-depleted NTX tumor cells from SCRx-CR42; experiment: Cell survival/proliferation, CellTiterGlo, SCRx-CR42; format: cell-based, human; conditions: 10 μg/mL, 14 days
Procedure: (§1) To determine whether Notum protein impacts cell proliferation and/or apoptosis of human colorectal cancer cells, HCT-116 cells or mouse lineage-depleted NTX tumor cells (i.e. human tumor cells) were plated as described below and exposed to recombinant hNotum (e.g. hNotum-His or hNotum-hFc) and anti-Notum antibodies. Cell numbers were then assessed 12-14 days later.
(§2) Cells were then incubated for 14 days at 37° C., 5% CO2 and 5% O2 and the number of viable cells was assessed using Promega's CellTiterGlo assay kit per the manufacturer's instructions. For the HCT-116 cell line (a commercially available colorectal tumor cell line), cells were plated at 2,000 cells per well in DMEM+1% FBS, followed 24-hours later by the addition of serum free DMEM containing recombinant human Notum in the presence or absence of monoclonal antibodies SC2.D2.2 or SC2.10B3. HCT-116 cells were then incubated for 12 days at 37° C., 5% CO2 and cell viability was assessed with Promega's CellTiterGlo assay kit. Higher readings are indicative of higher viable cell counts.

HCT-116 cells = experiment: Cell survival/proliferation, CellTiterGlo, HCT-116; format: cell-based, human; conditions: 10 μg/mL, 12 days
Procedure: as §1, §2

[6] = Lipase activity of hNotum, turbidometric Tween 20 lipolysis; format: biochemical
Procedure: Briefly, recombinant hNotum (1 μg/well) was added to an assay buffer containing 50 mM Tris, pH 7.4, 33.3 mM CaCl2, and 0.33% Tween-20. When the Tween 20 monolauryl group is cleaved by lipases (e.g. hNotum), the free fatty acid forms an insoluble complex with the Ca^2+ cations resulting in a turbid solution, the OD of which can be measured at 405 nm to provide a measure of lipase activity. As a positive control, the activity of porcine pancreatic lipase (Sigma Aldrich) was measured in the same assay.

[7] = 4-MUH fluorescent hydrolase assay, activity of Notum constructs; format: biochemical
Procedure: In addition to the assays described in Examples 23 and 24, a fluorescent esterase substrate, 4-methylumbelliferyl heptanoate (Sigma), can be used to measure the activity of hydrolases using standard assay conditions (Richardson and Smith, 2007, PMID: 17620441; Jacks and Kircher, 1967, PMID: 5582971). Briefly, 4-MUH was dissolved in DMSO to a final concentration of 1.2 mM. This substrate was diluted 1:10 into assay buffer (0.1M Tris, pH 7.5, 50 mM NaCl, 0.05% Brij) and incubated with defined amounts of Notum enzyme or point-mutated Notum enzymes, and enzymatic release of the fluorescent molecule 4-methylumbelliferone monitored (355 nm excitation, 460 nm emission) using a Wallac Victor3 Multilabel Counter (Perkin Elmer).

Sequence of Wnt3A (conditioned medium from L/Wnt3A cells, ATCC CRL-2647) (P27467 19-352 limits assumed): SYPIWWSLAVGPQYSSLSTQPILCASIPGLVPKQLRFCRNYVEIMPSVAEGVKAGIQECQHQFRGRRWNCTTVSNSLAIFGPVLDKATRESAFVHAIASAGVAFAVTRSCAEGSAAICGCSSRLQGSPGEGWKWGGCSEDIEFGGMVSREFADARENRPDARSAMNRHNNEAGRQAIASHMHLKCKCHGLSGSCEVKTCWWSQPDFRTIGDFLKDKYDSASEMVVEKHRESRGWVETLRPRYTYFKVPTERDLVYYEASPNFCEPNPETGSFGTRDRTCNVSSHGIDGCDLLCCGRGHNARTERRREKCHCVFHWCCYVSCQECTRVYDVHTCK

| Molecule | esterase activity [3] | antagonism of Wnt3A-mediated induction of luciferase [4] | hydrolysis of the 4-MUH substrate [7] | other results |
| --- | --- | --- | --- | --- |
| hNotum-Fc (human Notum fused to human IgG2 Fc) (Fc fusion) |  |  |  | IC50 of the decrease in luciferase activity (293.TCF Wnt3A assay) [1]: 0.47 |
| [Cl-].[Li+] [LiCl] |  |  |  | activation of luciferase transcription [2]: activate luciferase transcription |
| macaque Notum: recombinant macaque Notum protein, construct not stated (protein, left off: a dimerising Fc or GST) SEGRKTWRRRGQQPPPPPRTEAAPAAGQPVESFPLDFTAVEGNMDSFMAQVKSLAQSLYPCSAQQLNEDLRLHLLLNTSVTCNDGSPAGYYLKESRGSRRWLLFLEGGWYCFNRENCDSRYNTMRRLMSSRDWPRTRTGTGILSSQPEENPYWWNANMVFIPYCSSDVWSGASSKSEKNEYAFMGALIIQEVVRELLGRGLSGAKVLLLAGSSAGGTGVLLNVDRVAEQLEELGYPAIQVRGLADSGWFLDNKQYRHTDCVDTITCAPTEAIRRGIRYWNGVVPERCRRQFQEGEEWNCFFGYKIYPTLRCPVFVVQWLFDEAQLTVDNVHLTGQPVQESQRLYIQNLGRELRHTLKDVPASFAPACLSHEIIIRSHWTDVQVKGTSLPRALHCWDRSLHDSHKNSKTPLKGCPVHLVDSCPWPHCNPSCPTVRDQFTGQEMNVAQFLMHMGFDVQTVAQQQGPEPSKLLGL | display esterase activity |  |  |  |
| hNotum-His: recombinant His tagged human Notum protein (protein, left off: small tags and cut ends, recombinant His tagged human Notum protein) SEGRKTWRRRGQQPPPPPRTEAAPAAGQPVESFPLDFTAVEGNMDSFMAQVKSLAQSLYPCSAQQLNEDLRLHLLLNTSVTCNDGSPAGYYLKESRGSRRWLLFLEGGWYCFNRENCDSRYDTMRRLMSSRDWPRTRTGTGILSSQPEENPYWWNANMVFIPYCSSDVWSGASSKSEKNEYAFMGALIIQEVVRELLGRGLSGAKVLLLAGSSAGGTGVLLNVDRVAEQLEKLGYPAIQVRGLADSGWFLDNKQYRHTDCVDTITCAPTEAIRRGIRYWNGVVPERCRRQFQEGEEWNCFFGYKVYPTLRCPVFVVQWLFDEAQLTVDNVHLTGQPVQEGLRLYIQNLGRELRHTLKDVPASFAPACLSHEIIIRSHWTDVQVKGTSLPRALHCWDRSLHDSHKASKTPLKGCPVHLVDSCPWPHCNPSCPTVRDQFTGQEMNVAQFLMHMGFDMQTVAQPQGLEPSELLGMLSNGS |  | functionally antagonize |  | increase in cell counts [5]: 20-45% |
| hNotum: recombinant human Notum protein (e.g. hNotum-His or hNotum-hFc) (protein) SEGRKTWRRRGQQPPPPPRTEAAPAAGQPVESFPLDFTAVEGNMDSFMAQVKSLAQSLYPCSAQQLNEDLRLHLLLNTSVTCNDGSPAGYYLKESRGSRRWLLFLEGGWYCFNRENCDSRYDTMRRLMSSRDWPRTRTGTGILSSQPEENPYWWNANMVFIPYCSSDVWSGASSKSEKNEYAFMGALIIQEVVRELLGRGLSGAKVLLLAGSSAGGTGVLLNVDRVAEQLEKLGYPAIQVRGLADSGWFLDNKQYRHTDCVDTITCAPTEAIRRGIRYWNGVVPERCRRQFQEGEEWNCFFGYKVYPTLRCPVFVVQWLFDEAQLTVDNVHLTGQPVQEGLRLYIQNLGRELRHTLKDVPASFAPACLSHEIIIRSHWTDVQVKGTSLPRALHCWDRSLHDSHKASKTPLKGCPVHLVDSCPWPHCNPSCPTVRDQFTGQEMNVAQFLMHMGFDMQTVAQPQGLEPSELLGMLSNGS | has carboxyesterase activity | antagonizes Wnt3A CM | capable of hydrolyzing the 4-MUH substrate | antagonism of Wnt3A-mediated induction of luciferase ([4]; listed as wild-type human Notum): can inhibit the response of the 293.TCF cells to Wnt3A in a dose-dependent fashion; increase in cell numbers (HCT-116 cells): more than 2 fold; lipase activity [6]: capable of cleaving Tween 20 in a dose dependent fashion |
| human-NOTUM S232A mutant: human Notum with S232A point mutation of the putative catalytic nucleophile (His and hFc) (protein, UniProt Q6P988 20-496, looked up, variant S232A, His tag or human Fc) Palmitoleoyl-protein …: SEGRKTWRRRGQQPPPPPRTEAAPAAGQPVESFPLDFTAVEGNMDSFMAQVKSLAQSLYPCSAQQLNEDLRLHLLLNTSVTCNDGSPAGYYLKESRGSRRWLLFLEGGWYCFNRENCDSRYDTMRRLMSSRDWPRTRTGTGILSSQPEENPYWWNANMVFIPYCSSDVWSGASSKSEKNEYAFMGALIIQEVVRELLGRGLSGAKVLLLAGSAAGGTGVLLNVDRVAEQLEKLGYPAIQVRGLADSGWFLDNKQYRHTDCVDTITCAPTEAIRRGIRYWNGVVPERCRRQFQEGEEWNCFFGYKVYPTLRCPVFVVQWLFDEAQLTVDNVHLTGQPVQEGLRLYIQNLGRELRHTLKDVPASFAPACLSHEIIIRSHWTDVQVKGTSLPRALHCWDRSLHDSHKASKTPLKGCPVHLVDSCPWPHCNPSCPTVRDQFTGQEMNVAQFLMHMGFDMQTVAQPQGLEPSELLGMLSNGS | greatly reduced esterase activity | did not antagonize | no ability to hydrolyze the 4-MUH substrate | antagonism of Wnt3A-mediated induction of luciferase ([4]; listed as S232A): no ability to antagonize |
